Experimental data reported in patent US20150344570A1 (published 2015).

T1: FcγRIIa H (FcgRIIa type H, His at position 131), extracellular domain with C-terminal His tag (human, UniProt P12318 34-217)
T1 construct: extracellular domain; also called 2aH; FcgRIIa H; not shown: His tag at the C terminus
T1 sequence (looked up): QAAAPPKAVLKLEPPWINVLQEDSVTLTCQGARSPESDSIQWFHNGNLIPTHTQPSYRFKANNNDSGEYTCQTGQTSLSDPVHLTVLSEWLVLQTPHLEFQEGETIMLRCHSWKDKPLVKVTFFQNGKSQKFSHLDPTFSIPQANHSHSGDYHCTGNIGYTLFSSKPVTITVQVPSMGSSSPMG

T2: FcγRIIb, extracellular domain with C-terminal His tag (human, UniProt P31994 43-217)
T2 construct: extracellular domain; also called 2b; FcgRIIb; not shown: His tag at the C terminus
T2 sequence (looked up): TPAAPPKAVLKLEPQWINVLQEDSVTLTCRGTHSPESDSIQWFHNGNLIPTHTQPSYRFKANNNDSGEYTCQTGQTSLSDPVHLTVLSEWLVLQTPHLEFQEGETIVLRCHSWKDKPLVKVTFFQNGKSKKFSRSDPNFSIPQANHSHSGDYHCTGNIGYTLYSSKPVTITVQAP

B1: GpH7-A5/GpH7-B3 variant N325_08L/GpL16-k0 (antibody, human IgG1, kappa)
heavy 1: not shown
heavy 2: not shown
light: DIVMTQSPLSLPVTPGEPASISCQASESLVHSNRNTYLHWYLQKPGQSPQLLIYKVSNRFSGVPDRFSGSGSGTDFTLKISRVEAEDVGVYYCSQNTHVPPTFGQGTKVEIERTVAAPSVFIFPPSDEQLKSGTASVVCLLNNFYPREAKVQWKVDNALQSGNSQESVTEQDSKDSTYSLSSTLTLSKADYEKHKVYACEVTHQGLSSPVTKSFNRGEC
notes: He Ab; alteration in one H chain only; also called He Ab
B2: GpH7-A5/GpH7-B3 variant P331_03V/GpL16-k0 (antibody, human IgG1, kappa)
heavy 1: not shown
heavy 2: not shown
light: B1 light
notes: as for B1
B3: GpH7-A5/GpH7-B3 variant P331_15Y/GpL16-k0 (antibody, human IgG1, kappa)
heavy 1: not shown
heavy 2: not shown
light: B1 light
notes: as for B1
B4: GpH7-A5/GpH7-B3 variant N325_01G/GpL16-k0 (antibody, human IgG1, kappa)
heavy 1: not shown
heavy 2: not shown
light: B1 light
notes: as for B1
B5: GpH7-A5/GpH7-B3 variant A327_07I/GpL16-k0 (antibody, human IgG1, kappa)
heavy 1: not shown
heavy 2: not shown
light: B1 light
notes: as for B1
B6: GpH7-A5/GpH7-B3 variant N325_04F/GpL16-k0 (antibody, human IgG1, kappa)
heavy 1: not shown
heavy 2: not shown
light: B1 light
notes: as for B1
B7: GpH7-A5/GpH7-B3 variant L328_04F/GpL16-k0 (antibody, human IgG1, kappa)
heavy 1: not shown
heavy 2: not shown
light: B1 light
notes: as for B1
B8: GpH7-A5/GpH7-B3 variant K334_02A/GpL16-k0 (antibody, human IgG1, kappa)
heavy 1: not shown
heavy 2: not shown
light: B1 light
notes: as for B1
B9: GpH7-A5/GpH7-B3 variant N325_20W/GpL16-k0 (antibody, human IgG1, kappa)
heavy 1: not shown
heavy 2: not shown
light: B1 light
notes: as for B1
B10: GpH7-A5/GpH7-B3 variant P331_16H/GpL16-k0 (antibody, human IgG1, kappa)
heavy 1: not shown
heavy 2: not shown
light: B1 light
notes: as for B1
B11: GpH7-A5/GpH7-B3 variant K334_12R/GpL16-k0 (antibody, human IgG1, kappa)
heavy 1: not shown
heavy 2: not shown
light: B1 light
notes: as for B1
B12: GpH7-A5/GpH7-B3 variant L328_15Y/GpL16-k0 (antibody, human IgG1, kappa)
heavy 1: not shown
heavy 2: not shown
light: B1 light
notes: as for B1
B13: GpH7-A5/GpH7-B3 variant N325_03V/GpL16-k0 (antibody, human IgG1, kappa)
heavy 1: not shown
heavy 2: not shown
light: B1 light
notes: as for B1
B14: GpH7-A5/GpH7-B3 variant N325_06M/GpL16-k0 (antibody, human IgG1, kappa)
heavy 1: not shown
heavy 2: not shown
light: B1 light
notes: as for B1
B15: GpH7-A5/GpH7-B3 variant K326_15Y/GpL16-k0 (antibody, human IgG1, kappa)
heavy 1: not shown
heavy 2: not shown
light: B1 light
notes: as for B1
B16: GpH7-A5/GpH7-B3 variant P331_07I/GpL16-k0 (antibody, human IgG1, kappa)
heavy 1: not shown
heavy 2: not shown
light: B1 light
notes: as for B1
B17: GpH7-A5/GpH7-B3 variant P331_04F/GpL16-k0 (antibody, human IgG1, kappa)
heavy 1: not shown
heavy 2: not shown
light: B1 light
notes: as for B1
B18: GpH7-A5/GpH7-B3 variant P331_06M/GpL16-k0 (antibody, human IgG1, kappa)
heavy 1: not shown
heavy 2: not shown
light: B1 light
notes: as for B1
B19: GpH7-A5/GpH7-B3 variant K326_20W/GpL16-k0 (antibody, human IgG1, kappa)
heavy 1: not shown
heavy 2: not shown
light: B1 light
notes: as for B1
B20: GpH7-A5/GpH7-B3 variant P331_20W/GpL16-k0 (antibody, human IgG1, kappa)
heavy 1: not shown
heavy 2: not shown
light: B1 light
notes: as for B1
B21: GpH7-A5/GpH7-B3 variant A327_18N/GpL16-k0 (antibody, human IgG1, kappa)
heavy 1: not shown
heavy 2: not shown
light: B1 light
notes: as for B1

Key:
[1] = target: T1, FcγRIIa H (FcgRIIa type H, His at …); test: SPR (Biacore), relative binding, GpH7-A5/GpH7-B3/GpL16-k0 = 100
[2] = target: T2, FcγRIIb, extracellular domain with …; test: as above

| Binder | He/Con_2aH [1] | He/Con_2b [2] |
| --- | --- | --- |
| B1 | 52 % of control | 197 % of control |
| B2 | 82.5 % of control | 119 % of control |
| B3 | 86 % of control | 114 % of control |
| B4 | 56.8 % of control | 101 % of control |
| B5 | 58.4 % of control | 127 % of control |
| B6 | 33.4 % of control | 143 % of control |
| B7 | 71.7 % of control | 219 % of control |
| B8 | 97 % of control | 108 % of control |
| B9 | 47.2 % of control | 169 % of control |
| B10 | 84.5 % of control | 116 % of control |
| B11 | 99.7 % of control | 111 % of control |
| B12 | 90 % of control | 193 % of control |
| B13 | 45.2 % of control | 111 % of control |
| B14 | 48.2 % of control | 217 % of control |
| B15 | 98.3 % of control | 159 % of control |
| B16 | 77.4 % of control | 114 % of control |
| B17 | 84.7 % of control | 110 % of control |
| B18 | 85.1 % of control | 102 % of control |
| B19 | 83.3 % of control | 148 % of control |
| B20 | 82.8 % of control | 111 % of control |
| B21 | 66.8 % of control | 113 % of control |
